The test system of the series is K4 kissing-loop RNA reporter. The experiment in a line: apparent KD of K4 kissing-loop reporter; higher = weaker reporter binding. To be noted: Eterna round: R107. As for the experimental part:
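RNA-MaP round R107: designed RNA switches with theophylline, tryptophan, arginine or FMN aptamers are transcribed on-chip within common flanks. They are titrated with a labelled K4 kissing-loop RNA reporter in RNA-MaP buffer (100 mM Tris pH 7.5, 80 mM KCl, 4 mM MgCl2), without ligand or with the indicated ligand. Median apparent KD per design.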

Where [1] appears, read: input ligand: theophylline 20 uM.
Setting [2] is: input ligand: tryptophan 2.4 mM.
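Further: bound reporter read as fluorescence of individual clusters on recovered sequencing chips by microscopy, with normalized cluster intensities fitted with a binding model.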

For the sequence “GGAGGAGAAUAUGAUACCAGCAGAGAGAGAGAGGAAGUAUAGUGAUGUUAUAUGUGAGAAUGCCCUUGGCAGCAUAACAAGAAGG [whbob_SS_Theo_B_sa88]”, the “apparent KD of K4 kissing-loop reporter” value by setting is: (input ligand: FMN 200 uM) 121 nM; (input ligand: arginine 13.2 mM) 225 nM; (input ligand: none) 194 nM; under setting [1], 116 nM; under setting [2], 122 nM.

On to “GGAUAGGACAGAGGAUAUGGGCUAGGCAAGAAUAACUUGUCUAGCAAAUCCAUGAGGAGUGAUGUUCCAGAAGGCUGUCCUAUCG [FmnBX 1 - #SwitchBubble #StraticStem #DoubleMagnetSystem]”, for which the “apparent KD of K4 kissing-loop reporter” value runs as follows: (input ligand: FMN 200 uM) 375 nM; (input ligand: arginine 13.2 mM) 167 nM; (input ligand: none) 114 nM; under setting [1], 177 nM; under setting [2], 143 nM.

Turning to “GGAUAGGACAUAGGAUAUGGUAGUGAUGUUACCAAACUGGUUAAACAUGUCAGAAAACUGGCAUGACCAGAAGGAUGUCCUAUCG [FmnBX 27 U11+A75]”, the “apparent KD of K4 kissing-loop reporter” value is, setting by setting: (input ligand: FMN 200 uM) 85.2 nM; (input ligand: arginine 13.2 mM) 63.2 nM; (input ligand: none) 66.3 nM; under setting [1], 58.8 nM; under setting [2], 63.5 nM.

Turning to “GGAUAGGAUAGAGGAUAUGGCUUACACAGAAAUAACUUGUUGUGUUUAUCCAUAGGGAGUGAUGUUCCAGAAGGCUGUCCUAUCG [MatMod 19 - Jieux - Exclusion - FMN B]”, the “apparent KD of K4 kissing-loop reporter” value stood at 743 nM (input ligand: FMN 200 uM); 197 nM (input ligand: arginine 13.2 mM); 210 nM (input ligand: none); 232 nM under setting [1]; 161 nM under setting [2].

Consider “GGAUAGGAUAGAGGAUAUGGGCUAGGCAAGAAUAACUUGUCUAGCAAAUCCAUGAGGAGUGAUGUUCCAGAAGGCUAUCCUAUCG [FmnBX 1 U9+A77]”, for which the “apparent KD of K4 kissing-loop reporter” value runs as follows: (input ligand: FMN 200 uM) 960 nM; (input ligand: arginine 13.2 mM) 160 nM; (input ligand: none) 164 nM; under setting [1], 145 nM; under setting [2], 155 nM.

Turning to “GGAUAGGAUAGAGGAUAUGGUAGUGAUGUUACCAAACUGGUUAAACAUGUCAGAAAACUGGCAUGACCAGAAGGCUGUCCUAUCG [FmnBX 27 U9]”, the “apparent KD of K4 kissing-loop reporter” value runs as follows: (input ligand: FMN 200 uM) 102 nM; (input ligand: arginine 13.2 mM) 63.4 nM; (input ligand: none) 71 nM; under setting [1], 70.5 nM; under setting [2], 69.8 nM.

As for “GGAUCCACCAGUGAUGUUGGAGAAAACUUCAAGGAUAUGACGAAAGUCAGAAGGUGAUAGACUGGACAAAGUCCGGUCGGAUCCA [FmnA 19 U29+A57]”, the “apparent KD of K4 kissing-loop reporter” value reads like this: (input ligand: FMN 200 uM) 552 nM; (input ligand: arginine 13.2 mM) 729 nM; (input ligand: none) 454 nM; under setting [1], 527 nM; under setting [2], 462 nM.

Consider “GGAUGGUAGGCGGCCGCCACUAAAUGUGAACACAUACAAGCCAGUGAUGUUGGUAUGAUGGACAAUAGGACCGGGCCUAGAUAGA [Exclusion - Tryptophan B (Freestyle 7)]”, for which the “apparent KD of K4 kissing-loop reporter” value came to 595 nM (input ligand: FMN 200 uM); 448 nM (input ligand: arginine 13.2 mM); 555 nM (input ligand: none); 495 nM under setting [1]; 542 nM under setting [2].

Consider “GGCACUUUUGGUAGAAACCAUCUACCUCUAUAGGAUAUGCCGAAAGGCAGAAGGAUAGACCUACAGAGUGAUGUUCUGCGUGCCU”, for which the “apparent KD of K4 kissing-loop reporter” value amounted to 692 nM (input ligand: FMN 200 uM); 406 nM (input ligand: arginine 13.2 mM); 719 nM (input ligand: none); 460 nM under setting [1]; 503 nM under setting [2].

For “GGCAUGGUGGCAGGAUAUCCUAAUAGAGUGAUGUUCUAGCCCUCGUAGGCGAAAGCCUACGAGGGCGGAGAAGGGCCACCAUGCC”, the “apparent KD of K4 kissing-loop reporter” value runs as follows: (input ligand: FMN 200 uM) 263 nM; (input ligand: arginine 13.2 mM) 384 nM; (input ligand: none) 697 nM; under setting [1], 835 nM; under setting [2], 431 nM.

For “GGGAGUAGUGCGGCCGCCACUGUGAAAGUAGAAGAAUAUAGUGAUGUUAUAUAGGAACAAAAGAAUAGGACCGGGCAUUAGAUUU [SSTRyptB.X]”, the “apparent KD of K4 kissing-loop reporter” value (input ligand: FMN 200 uM) was determined as 311 nM; the “apparent KD of K4 kissing-loop reporter” value (input ligand: arginine 13.2 mM) was determined as 260 nM; the “apparent KD of K4 kissing-loop reporter” value (input ligand: none) was found to be 304 nM; the “apparent KD of K4 kissing-loop reporter” value under setting [1] was determined as 299 nM; the “apparent KD of K4 kissing-loop reporter” value under setting [2] worked out at 198 nM.

As for “GGGAGUAGUGCGGCCGCCACUGUGAGGGAAGAAGAAUAUAGUGAUGUUAUAUAGGAAGGGAAGAAUAGGACCGGGCAUUAGAUUU [SSTRyptB.aB]”, the “apparent KD of K4 kissing-loop reporter” value by setting is: (input ligand: FMN 200 uM) 225 nM; (input ligand: arginine 13.2 mM) 208 nM; (input ligand: none) 245 nM; under setting [1], 230 nM; under setting [2], 198 nM.

With “GGGCCUGGGCCCGUAAGGGCCUGGGCCCGUUAGGAUAUGACGUGAUUCAGAAGGGAUGGGUGGAGUGAUGUUCCACCCGAGAGGG [#2 Same State - FMN A Attempt #24 (HarryS)]”, the “apparent KD of K4 kissing-loop reporter” value runs as follows: (input ligand: FMN 200 uM) 111 nM; (input ligand: arginine 13.2 mM) 97.7 nM; (input ligand: none) 117 nM; under setting [1], 88.5 nM; under setting [2], 96.7 nM.

For “GGGUCAUGGAACGGAUAAGUGAUGUUUACCCGAGGACCGGUACGGCCGCCACUCGGUCGUUAUUUCCGACGUGCUGGUAAGACUA [theeternabot_exclusion_KL_Trp_A_10]”, the “apparent KD of K4 kissing-loop reporter” value is, setting by setting: (input ligand: FMN 200 uM) 336 nM; (input ligand: arginine 13.2 mM) 253 nM; (input ligand: none) 378 nM; under setting [1], 348 nM; under setting [2], 475 nM.

On to “GGGUUUGCCGGAAGGAGCGCACUAUGGAGUGAUGUUCCAUGACCGCACAGCUUGCGGUCAGUGCAGGUAGGUCGCCGGUAGCGUU [Maedzaus]”, for which the “apparent KD of K4 kissing-loop reporter” value worked out at 205 nM (input ligand: FMN 200 uM); 203 nM (input ligand: arginine 13.2 mM); 239 nM (input ligand: none); 271 nM under setting [1]; 179 nM under setting [2].

“GGUAGCAUGGCGGCCGCCACUGUCUACUGAGGCGGAGUGAUGUUCCGGUUUAAAUAACAAGUUCACAGGACCGGGCCAUGCUACC”: the “apparent KD of K4 kissing-loop reporter” value by setting is: (input ligand: FMN 200 uM) 382 nM; (input ligand: arginine 13.2 mM) 400 nM; (input ligand: none) 462 nM; under setting [1], 471 nM; under setting [2], 141 nM.

For the sequence “GGUAGCAUGGCGGCCGCCACUUUUACUGGAUCGGAAACGAUCCAGUAUUGUGUAGUGAUGUUACAAAGGACCGGGCCAUGCUACC”, the “apparent KD of K4 kissing-loop reporter” value stood at 201 nM (input ligand: FMN 200 uM); 188 nM (input ligand: arginine 13.2 mM); 180 nM (input ligand: none); 189 nM under setting [1]; 167 nM under setting [2].

Turning to “GGUUCCUCAGUGAUGUUGAGGUGACCUCGGCAGGAUAUAGGCAUUACUAGAAGGGCCAAAAGAAUCCUGUGCAGCAACACAGGGA [Usrasoza]”, the “apparent KD of K4 kissing-loop reporter” value reads like this: (input ligand: FMN 200 uM) 152 nM; (input ligand: arginine 13.2 mM) 238 nM; (input ligand: none) 298 nM; under setting [1], 257 nM; under setting [2], 262 nM.

For the origin of these results see the supplement of paper PMC9170038.
